In assay [1] the target is T1, human EPOR-Fc (Catalog No. 963-ER-050, R&D Systems) (human, UniProt P19235 25-250, biotinylated in Example 10 only).
T1 construct: extracellular domain; treated as one molecule; also called extracellular domain of human EPOR; human EPO receptor; not shown: Fc part of the bought EPOR-Fc
T1 sequence (looked up): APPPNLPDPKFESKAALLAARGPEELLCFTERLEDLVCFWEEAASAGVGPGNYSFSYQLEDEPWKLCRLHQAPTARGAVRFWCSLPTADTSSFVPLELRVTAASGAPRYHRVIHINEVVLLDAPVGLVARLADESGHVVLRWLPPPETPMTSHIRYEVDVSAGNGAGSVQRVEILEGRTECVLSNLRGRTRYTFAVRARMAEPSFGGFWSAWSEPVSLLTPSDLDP
As to the kind of experiment: biolayer interferometry (ForteBio); biotinylated human EPOR on streptavidin tips, EPO analog 20-0.25 nM, 1:1 fit. The text has this: Dissociation was monitored for 600 seconds. A buffer only blank curve was subtracted to correct for any drift.
(Biolayer interferometry detects binding as a change in optical thickness at a sensor tip.)

The next assay addresses T2, human EPOR on TF-1 cells (human, UniProt P19235 25-508).
T2 sequence (looked up): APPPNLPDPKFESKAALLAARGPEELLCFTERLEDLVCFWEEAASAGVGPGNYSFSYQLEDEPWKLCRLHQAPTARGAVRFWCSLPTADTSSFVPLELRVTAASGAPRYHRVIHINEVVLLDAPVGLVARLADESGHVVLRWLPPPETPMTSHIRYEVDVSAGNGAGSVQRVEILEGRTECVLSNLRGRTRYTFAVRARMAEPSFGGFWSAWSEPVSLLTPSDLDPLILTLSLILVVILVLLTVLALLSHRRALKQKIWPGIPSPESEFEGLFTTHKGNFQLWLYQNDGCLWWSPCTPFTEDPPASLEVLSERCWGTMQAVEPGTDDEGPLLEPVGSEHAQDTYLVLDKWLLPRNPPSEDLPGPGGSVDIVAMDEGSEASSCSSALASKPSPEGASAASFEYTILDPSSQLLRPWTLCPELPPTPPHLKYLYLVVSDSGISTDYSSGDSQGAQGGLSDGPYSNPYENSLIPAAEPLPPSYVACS
As to the kind of experiment: cell-based or functional assay.

Assay [2] deals with T3, Feline EPOR202_ECD_human Fc (feline EPOR fused to human Fc, biotinylated with EZ-Link NHS-LC-biotin).
T3 construct: also called fEPOR202_ECD-Fc; feline EPOR202-ECD-Fc
T3 sequence (chain, as listed by the source limits assumed): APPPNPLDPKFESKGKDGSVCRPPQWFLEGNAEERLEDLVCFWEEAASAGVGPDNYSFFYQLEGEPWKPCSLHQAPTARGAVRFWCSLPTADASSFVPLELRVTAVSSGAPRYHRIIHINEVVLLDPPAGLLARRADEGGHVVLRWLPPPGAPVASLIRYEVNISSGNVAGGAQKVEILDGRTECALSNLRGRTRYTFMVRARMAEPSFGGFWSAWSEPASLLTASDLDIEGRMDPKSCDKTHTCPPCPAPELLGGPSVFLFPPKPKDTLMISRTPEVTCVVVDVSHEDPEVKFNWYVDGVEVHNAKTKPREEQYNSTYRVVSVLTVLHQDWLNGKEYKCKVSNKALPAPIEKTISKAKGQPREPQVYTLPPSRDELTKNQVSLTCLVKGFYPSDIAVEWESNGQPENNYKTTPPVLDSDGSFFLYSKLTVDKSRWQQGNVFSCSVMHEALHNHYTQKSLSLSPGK
As to the kind of experiment: biolayer interferometry (ForteBio); biotinylated receptor-Fc on streptavidin tips, EPO analog 150-1.9 nM, 1:1 fit. The method, then: (§1) The binding analysis was performed as follows. Briefly, fEPOR201_ECD-Fc and fEPOR202_ECD-Fc were biotinylated using EZ-Link NHS-LC-biotin (Catalog No. 21336, Thermo Scientific). The free unreacted biotin was removed by dialysis. Biotinylated fEPOR201_ECD-Fc and fEPOR202_ECD-Fc were captured on streptavidin sensor tips (Catalog No. 18-509, ForteBio).
(§2) Dissociation was monitored for 600 seconds. A buffer only blank curve was subtracted to correct for any drift. The data were fit to a 1:1 binding model using ForteBio™ data analysis software to determine the kₒₙ (association rate constant), koff (dissociation rate constant) and the Kd (dissociation constant). […] The buffer for dilutions and all binding steps was: 200 mM phosphate, 150 mM NaCl, 0.02% Tween-20, 0.05% sodium azide, and 0.1 mg BSA, pH7.4.

In assay [3] the target is T4, Feline EPOR201_ECD_human Fc (feline EPOR fused to human Fc, biotinylated with EZ-Link NHS-LC-biotin).
T4 construct: also called fEPOR201_ECD-Fc; feline EPOR201-ECD-Fc
T4 sequence (chain, as listed by the source limits assumed): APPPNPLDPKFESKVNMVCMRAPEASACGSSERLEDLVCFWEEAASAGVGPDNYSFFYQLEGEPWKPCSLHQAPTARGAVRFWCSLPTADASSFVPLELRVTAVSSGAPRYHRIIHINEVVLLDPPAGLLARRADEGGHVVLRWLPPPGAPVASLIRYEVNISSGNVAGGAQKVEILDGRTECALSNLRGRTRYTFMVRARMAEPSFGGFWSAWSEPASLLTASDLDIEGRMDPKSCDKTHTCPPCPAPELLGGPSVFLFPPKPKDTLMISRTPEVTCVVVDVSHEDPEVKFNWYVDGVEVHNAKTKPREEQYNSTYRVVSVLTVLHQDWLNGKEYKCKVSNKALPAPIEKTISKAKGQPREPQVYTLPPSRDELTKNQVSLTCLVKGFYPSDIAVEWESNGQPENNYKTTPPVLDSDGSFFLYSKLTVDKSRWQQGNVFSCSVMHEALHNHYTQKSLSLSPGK
The assay is described as above. The protocol:
as §1, §2

The target in assay [4] is T1, human EPOR-Fc (Catalog No. 963-ER-050, …). As to the kind of experiment: ELISA 1: EPO analog captured by mouse anti-EPO antibody (MAB287), human EPOR-Fc at 200 ng/mL, anti-human Fc HRP. The method, then: (§3) A 96-well plate was coated with a mouse anti-EPO specific antibody (Catalog No. MAB287, clone 9C21D11, R&D Systems) to capture the EPO polypeptides. The EPO-bound wells were incubated with human EPOR-Fc at a concentration of 200 ng/mL and the bound EPOR was detected by anti-human Fc HRP conjugated antibody. The ELISA was performed a second time, but the three samples of EPO polypeptides were first treated with neuraminidase to remove the sialic acid.
(In general: In an ELISA, binding on a coated surface is turned into a signal by an enzyme label.)

Assay [5] has the same target. As to the kind of experiment: ELISA 2: as ELISA 1, EPO sample treated with neuraminidase first. The protocol: as §3
For assay [6], the target named is T5, Feline EPOR203_39A_ECD_Fc (feline EPOR fused to human Fc).
T5 construct: also called feline EPOR203-ECD-Fc; fEPOR203_ECD-Fc
T5 sequence (chain, as listed by the source limits assumed): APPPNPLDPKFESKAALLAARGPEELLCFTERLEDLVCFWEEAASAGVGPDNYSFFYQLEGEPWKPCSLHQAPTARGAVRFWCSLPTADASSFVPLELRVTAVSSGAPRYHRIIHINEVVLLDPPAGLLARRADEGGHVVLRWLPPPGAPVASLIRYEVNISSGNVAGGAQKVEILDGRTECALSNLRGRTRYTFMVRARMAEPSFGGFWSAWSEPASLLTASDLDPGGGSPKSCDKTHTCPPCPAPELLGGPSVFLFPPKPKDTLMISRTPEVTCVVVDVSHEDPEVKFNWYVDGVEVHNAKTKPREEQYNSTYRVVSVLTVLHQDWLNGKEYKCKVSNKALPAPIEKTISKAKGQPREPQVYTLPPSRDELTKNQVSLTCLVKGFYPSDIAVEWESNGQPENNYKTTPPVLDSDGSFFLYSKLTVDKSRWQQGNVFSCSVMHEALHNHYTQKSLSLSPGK
Briefly: sandwich ELISA: plate coated with anti-human EPO antibody, Analog 6-30 EV Mature captured in 2-fold dilutions from 500 ng/mL, feline EPOR203_39A_ECD_Fc added at 200 ng/mL, detected with anti-human Fc HRP; 4-parameter fit. The axis 'Conc' prints no unit; ng/mL is from paragraph 333. The method, then:
Feline EPOR203_39A_ECD_Fc (200 ng/mL in 1% BSA-PBST buffer) was added to each well and binding allowed to proceed for 1 hour at room temperature. A rabbit anti-human Fc antibody and horseradish peroxidase (HRP) conjugate (0.2 μg/mL) was used for detection and left in the wells for 1 hour at room temperature. 3,3,5,5′-Tetramethylbenzidine (TMB) was applied to the wells as the HRP substrate and kept in the well for 5 to 7 minutes for signal development.

Numbering of substitutions follows the chain as printed.

In general, Kd refers to the concentration at which binding is half-saturated. Higher therefore signals lower affinity. As a reminder, the EC50 is the concentration that produces a half-maximal response. A low value points to an effect from little substance.

B1: Feline EPO Analog 6-30 G18V87 mature form (Analog 6-30 GV Mature) (ligand)
chain: APPRLICDSRVLERYILGAREAENVTMGCNETCSFSENITVPDTKVNFYTWKRMDVGQQAVEVWQGLALLSEAILRGQALLANSSQVNETLQLHVDKAVSSLRSLTSLLRALGAQKEATSLPEATSAAPLRTFTVDTLCKLFRIYSNFLRGKLTLYTGEACRRGDR
modifications: N-linked glycosylated and sialylated (CHO DG-44 expressed); fraction not specified in this assay
notes: also called feline EPO Analog 6-30 GV Mature
In the case of B1, the Kd in assay [1] stood at 0.0976 nM; in assay [2] it was 0.17 nM; in assay [3], 0.4 nM. The “EC50, TF-1 cell proliferation (MTT)” value with human EPOR on TF-1 cells was 0.3 IU/mL.

B2: Analog 6-30 GV Mature (acidic fraction) (ligand)
chain: B1 chain
modifications: N-linked glycosylated; high sialylation, isoelectric point range of about 2 to about 3.5
notes: Same polypeptide as m1; glycoform fraction; In ELISA 2 it was treated with neuraminidase first; also called acidic (high sialylation) fraction of Analog 6-30 GV Mature
Regarding B2, the EC50 worked out at 0.1 µg/mL in assay [4] and 0.018 µg/mL in assay [5].

B3: Analog 6-30 GV Mature (basic fraction) (ligand)
chain: B1 chain
modifications: N-linked glycosylated; low sialylation, isoelectric point range of about 4 to about 5 (Example 15), about 3.5 to about 5 (Example 6)
notes: Same polypeptide as m1; glycoform fraction; In ELISA 2 it was treated with neuraminidase first; also called basic (low sialylation) fraction of Analog 6-30 GV Mature
For B3, the figures for the EC50 in assay [4] and in assay [5] were 0.035 µg/mL and 0.031 µg/mL, respectively.

B4: Feline EPO Analog 6-30 E18V87 mature form (Analog 6-30 EV Mature) (ligand)
chain: B1 chain with G18E
modifications: N-linked glycosylated and sialylated (CHO DG-44 expressed); fraction not specified in this assay
notes: also called Feline Analog 6-30 EV Mature; Sample 1
Take B4: the “EC50, TF-1 cell proliferation (MTT)” value with human EPOR on TF-1 cells amounted to 4.78 ng/mL. In assay [6], this molecule had an EC50 of 0.088 µg/mL.

B5: Analog 6-30 EV Mature (acidic fraction) (ligand)
chain: B1 chain with G18E
modifications: N-linked glycosylated; high sialylation (acidic fraction)
notes: Same polypeptide as m4; glycoform fraction; In ELISA 2 it was treated with neuraminidase first; also called acidic (high sialylation) fraction of Analog 6-30 EV Mature
On to B5, for which the EC50 in assay [4] turned out to be 0.045 µg/mL; in assay [5] it was 0.02 µg/mL.

These data come from patent US20210032305A1 (KINDRED BIOSCIENCES, published 2021).
